Counter-ions that a name gives are not always drawn. Where no end group is shown, it is not given here.
How the values were obtained:
[1] = Figure 17
From the text: Table printed on a drawing sheet, Figure 17
AK10 and Dextran 40 kDa are controls.
First reader's note: The Sample column holds peptide sequences with SEQ ID NOs as well as non-peptide controls; on the sheet the PBS/CM sub-heads stand in one merged head cell, split here into a second head row.

[2] = Figure 15
From the text: Table printed on a drawing sheet, Figure 15

Compound	De/10^-5 cm^2 s^-1 | CM [1]	De/10^-9 cm^2 s^-1 | CM [2]
O=C1OC2(c3ccc(O)cc3Oc3cc(O)ccc32)c2ccccc21 [Fluorescein Na Salt]	1.05 10^-5 cm^2 s^-1	–
M13 ISLPSPTGGGS (SEQ ID NO: 29) (also: displayed on M13 phage)	–	4.00 10^-9 cm^2 s^-1
M13 YNSPTHHGGGS (SEQ ID NO: 31) (also: displayed on M13 phage)	–	1.45 10^-9 cm^2 s^-1
M13 SSQLSRPGGGS (SEQ ID NO: 30) (also: displayed on M13 phage)	–	1.72 10^-9 cm^2 s^-1

Source: patent US20210284688A1, “MUCUS-PENETRATING PEPTIDES AND SCREENING ASSAY” (BOARD OF REGENTS, THE UNIVERSITY OF TEXAS SYSTEM, priority 2016, published 2021)
